From IntAct's records for PubMed 19033529

B1: Protein phosphatase 2C 16 (Arabidopsis thaliana (Mouse-ear cress)), Q9CAJ0 (parent)
chain: MEEMTPAVAMTLSLAANTMCESSPVEITQLKNVTDAADLLSDSENQSFCNGGTECTMEDVSELEEVGEQDLLKTLSDTRSGSSNVFDEDDVLSVVEDNSAVISEGLLVVDAGSELSLSNTAMEIDNGRVLATAIIVGESSIEQVPTAEVLIAGVNQDTNTSEVVIRLPDENSNHLVKGRSVYELDCIPLWGTVSIQGNRSEMEDAFAVSPHFLKLPIKMLMGDHEGMSPSLTHLTGHFFGVYDGHGGHKVADYCRDRLHFALAEEIERIKDELCKRNTGEGRQVQWDKVFTSCFLTVDGEIEGKIGRAVVGSSDKVLEAVASETVGSTAVVALVCSSHIVVSNCGDSRAVLFRGKEAMPLSVDHKPDREDEYARIENAGGKVIQWQGARVFGVLAMSRSIGDRYLKPYVIPEPEVTFMPRSREDECLILASDGLWDVMNNQEVCEIARRRILMWHKKNGAPPLAERGKGIDPACQAAADYLSMLALQKGSKDNISIIVIDLKAQRKFKTRT
partner: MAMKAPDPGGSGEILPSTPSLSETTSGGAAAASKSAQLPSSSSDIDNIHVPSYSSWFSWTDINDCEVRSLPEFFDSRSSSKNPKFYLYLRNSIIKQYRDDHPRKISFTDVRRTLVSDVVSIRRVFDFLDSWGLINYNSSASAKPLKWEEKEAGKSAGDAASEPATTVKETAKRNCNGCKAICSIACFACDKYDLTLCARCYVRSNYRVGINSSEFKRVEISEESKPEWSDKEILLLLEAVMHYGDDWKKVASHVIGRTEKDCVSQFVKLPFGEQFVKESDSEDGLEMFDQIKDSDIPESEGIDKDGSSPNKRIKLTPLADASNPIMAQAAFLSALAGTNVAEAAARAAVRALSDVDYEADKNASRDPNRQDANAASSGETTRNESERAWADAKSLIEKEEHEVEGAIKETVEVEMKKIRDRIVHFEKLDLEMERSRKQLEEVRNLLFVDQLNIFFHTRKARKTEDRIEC

Variants of: B1
Conditions: with swi3b_arath SWI3B

Variant | effect of a mutation on the interaction
MEEMTPAVAMTLSLAANTMCESSPVEITQLKNVTDAADLLSDSENQSFCNGGTECTMEDVSELEEVGEQDLLKTLSDTRSGSSNVFDEDDVLSVVEDNSAVISEGLLVVDAGSELSLSNTAMEIDNGRVLATAIIVGESSIEQVPTAEVLIAGVNQDTNTSEVVIRLPDENSNHLVKGRSVYELDCIPLWGTVSIQGNRSEMEDAFAVSPHFLKLPIKMLMGDHEGMSPSLTHLTGHFFGVYDGHDGHKVADYCRDRLHFALAEEIERIKDELCKRNTGEGRQVQWDKVFTSCFLTVDGEIEGKIGRAVVGSSDKVLEAVASETVGSTAVVALVCSSHIVVSNCGDSRAVLFRGKEAMPLSVDHKPDREDEYARIENAGGKVIQWQGARVFGVLAMSRSIGDRYLKPYVIPEPEVTFMPRSREDECLILASDGLWDVMNNQEVCEIARRRILMWHKKNGAPPLAERGKGIDPACQAAADYLSMLALQKGSKDNISIIVIDLKAQRKFKTRT [G246D] | disrupting interaction
